Laboratory results as given in publication PMC3500527 (Cancer cell, 2012).

Assays:
[1] = molecular target: T1, profilin-2 (immunoprecipitated from cell lysates; mass spectrometry) (UniProt P35080 1-140); experiment: co-IP
T1 sequence (looked up): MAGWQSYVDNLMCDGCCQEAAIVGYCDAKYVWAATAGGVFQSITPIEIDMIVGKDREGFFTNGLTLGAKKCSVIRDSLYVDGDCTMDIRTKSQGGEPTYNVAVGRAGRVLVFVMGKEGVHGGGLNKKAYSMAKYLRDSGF

[2] = molecular target: Cy3-mEVL1-235aa (mouse (from the label mEVL), UniProt P70429 1-235, Cy3 fluorophore (site not stated)); experiment: AUC
[3] = molecular target: Cy3-hVASP1-240aa (human, UniProt P50552 1-240, Cy3 fluorophore (site not stated)); experiment: AUC
[4] = molecular target: T2, HA-EVL (UniProt Q9UI08 1-416); experiment: co-IP
T2 sequence (looked up): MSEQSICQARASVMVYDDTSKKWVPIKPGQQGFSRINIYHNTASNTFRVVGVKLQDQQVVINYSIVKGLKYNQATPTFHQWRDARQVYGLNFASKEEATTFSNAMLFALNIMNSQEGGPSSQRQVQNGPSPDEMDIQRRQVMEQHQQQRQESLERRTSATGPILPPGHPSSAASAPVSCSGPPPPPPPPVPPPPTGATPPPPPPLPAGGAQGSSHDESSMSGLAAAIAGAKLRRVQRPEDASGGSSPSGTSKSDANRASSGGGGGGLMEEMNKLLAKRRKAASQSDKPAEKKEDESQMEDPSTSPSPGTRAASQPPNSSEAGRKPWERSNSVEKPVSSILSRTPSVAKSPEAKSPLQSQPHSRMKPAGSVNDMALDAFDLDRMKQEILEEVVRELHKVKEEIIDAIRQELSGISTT

B1: EVL (immunoprecipitated with profilins; mass spectrometry) (natural protein, UniProt Q9UI08 1-416, looked up)
chain: MSEQSICQARASVMVYDDTSKKWVPIKPGQQGFSRINIYHNTASNTFRVVGVKLQDQQVVINYSIVKGLKYNQATPTFHQWRDARQVYGLNFASKEEATTFSNAMLFALNIMNSQEGGPSSQRQVQNGPSPDEMDIQRRQVMEQHQQQRQESLERRTSATGPILPPGHPSSAASAPVSCSGPPPPPPPPVPPPPTGATPPPPPPLPAGGAQGSSHDESSMSGLAAAIAGAKLRRVQRPEDASGGSSPSGTSKSDANRASSGGGGGGLMEEMNKLLAKRRKAASQSDKPAEKKEDESQMEDPSTSPSPGTRAASQPPNSSEAGRKPWERSNSVEKPVSSILSRTPSVAKSPEAKSPLQSQPHSRMKPAGSVNDMALDAFDLDRMKQEILEEVVRELHKVKEEIIDAIRQELSGISTT
For B1, the “fold immunoprecipitated relative to profilin-1” value [1] was 7 fold.

B2: mouse profilin-2a (natural protein, UniProt Q9JJV2 1-140, looked up)
chain: MAGWQSYVDNLMCDGCCQEAAIVGYCDAKYVWAATAGGVFQSITPVEIDMIVGKDREGFFTNGLTLGAKKCSVIRDSLYVDGDCTMDIRTKSQGGEPTYNVAVGRAGRVLVFVMGKEGVHGGGLNKKAYSMAKYLRDSGF
B2: binds [2]; binds [3].

B3: profilin-2 (natural protein, human (endogenous in SUM159), UniProt P35080 1-140, looked up)
chain: MAGWQSYVDNLMCDGCCQEAAIVGYCDAKYVWAATAGGVFQSITPIEIDMIVGKDREGFFTNGLTLGAKKCSVIRDSLYVDGDCTMDIRTKSQGGEPTYNVAVGRAGRVLVFVMGKEGVHGGGLNKKAYSMAKYLRDSGF
With B3 the “fold immunoprecipitated relative to profilin-1” value [4] was 10 fold.

B4: VASP (immunoprecipitated with profilins) (natural protein, UniProt P50552 1-380, looked up)
chain: MSETVICSSRATVMLYDDGNKRWLPAGTGPQAFSRVQIYHNPTANSFRVVGRKMQPDQQVVINCAIVRGVKYNQATPNFHQWRDARQVWGLNFGSKEDAAQFAAGMASALEALEGGGPPPPPALPTWSVPNGPSPEEVEQQKRQQPGPSEHIERRVSNAGGPPAPPAGGPPPPPGPPPPPGPPPPPGLPPSGVPAAAHGAGGGPPPAPPLPAAQGPGGGGAGAPGLAAAIAGAKLRKVSKQEEASGGPTAPKAESGRSGGGGLMEEMNAMLARRRKATQVGEKTPKDESANQEEPEARVPAQSESVRRPWEKNSTTLPRMKSSSSVTTSETQPCTPSSSDYSDLQRVKQELLEEVKKELQKVKEEIIEAFVQELRKRGSP
In the case of B4, the “fold immunoprecipitated relative to profilin-1” value [1] is reported as 1.8 fold.
